# T1: murine PSCA (mPSCA) (murine, UniProt P57096 21-95)
# T1 construct: also called muPSCA; his Mu PSCA - E. coli
# T1 sequence (looked up): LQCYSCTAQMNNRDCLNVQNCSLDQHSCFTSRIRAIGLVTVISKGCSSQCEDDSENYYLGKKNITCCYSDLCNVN
# Columns and labels:
# murine PSCA (mPSCA) = target: T1, murine PSCA (mPSCA); assay: direct ELISA, antigen coated at 1 µg/ml
# Procedure: HuPSCA and murine PSCA (mPSCA) were coated overnight at 1 μg/ml onto a microtiter plate (Nunc). The anti-PSCA Mab and controls were added to the antigen-coated wells and incubated at room temperature. Unbound antibody was washed off and a horseradish peroxidase (HRP)-conjugated secondary antibody was added to the wells and incubated with the antibodies at room temperature. OPD substrate solution was finally added and concentrated sulfuric acid was used to stop the reaction. The plate was read at 492 nm using a microtiter plate reader.
# [1] = target: gD-tagged human PSCA expressed on transfected cells (Herpes Simplex virus; human, UniProt O43653 12-91)
binder,measurement,setting,value
"anti-PSCA monoclonal antibody 6B8.1D7.2B3 (antibody, V domains shown, also called Asc# 2761; #2761) VH: EVQLQQSGPDLEKPGASVKISCKPSGNSFTGYYIHWVKQSHGKSLEWIGRVDPNNGFTSYNQKFKGKAILTVDKSSSTAYMELRSLTSEDSAVYYCVGNFFDSWGQGTTLTVSS VL: not shown",binding result,murine PSCA (mPSCA),no binding
"anti-PSCA monoclonal antibody 5F2.4H4.1E3 (antibody, V domains shown) VH: QVQVQQPGAELVKPGAPVKLSCKASGYTFTNYWLNWVKQRPGRGLEWIGRIDPSDSEIHYDQKFKDKATLTVDKSSSTAYIQLSSLTSEDSAVYYCALTGIYAMAYWGQGTSVTVSS VL: DIVMTQAAPSVPVTPGESVSISCRSSKSLLHSNGNTYLYWFLQRPGQSPQLLIYRMSNLASGVPDRFSGSGSGTAFTLRISRVEAEDVGVYYCLQHLEYPYTFGGGTKLELKR",IC50,[1],13 nM

# From patent US20050036942A1 (Genentech, published 2005)
